This note sets out measurements from the supplement of paper PMC9170038.

For data set [1], the system named is MS2 coat protein. Put plainly: apparent KD of MS2 coat protein, switch ON state; designed switch direction (-1 OFF switch, 1 ON switch): -1; higher = weaker reporter binding. The note with it: FMN input: 0 or 200 uM; Eterna round: R93 (includes R88 designs). In a few lines: (§1)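 Designed RNA switches were transcribed on-chip from Illumina sequencing clusters. SNAP-549-labelled MS2 coat protein was titrated onto them in twofold steps from 0.7 or 1.5 nM to 3 µM in 100 mM Tris-HCl pH 7.5, 80 mM KCl, 4 mM MgCl2, either without or with constant ligand. Apparent KD reflects the per-design median of normalised cluster binding-curve fits.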

The test system of data set [2] is MS2 coat protein. Put plainly: apparent KD of MS2 coat protein, switch OFF state (with FMN for OFF switches, without FMN for ON switches); designed switch direction (-1 OFF switch, 1 ON switch): -1; higher = weaker reporter binding. The conditions noted are these: FMN input: 0 or 200 uM; Eterna round: R93 (includes R88 designs). A digest of the protocol:
as §1

For “AAAAAGUCAGGAUAUACGUACAUGUCAAAAGACGUGAAGGGACAUGAGGAUCACCCAUGUAGAAGGGACAAGAA [JL Stem Breaker 21]”, the “apparent KD of MS2 coat protein” value in the data set with MS2 coat protein [1] stood at 106 nM; with MS2 coat protein [2] it was 49.6 nM.

As to “GCUCAGUAAGGAUAUUAAUGGCGCUGUUAUUCAGCACCAGCUGAGAAGGUACAUGAGGAUCACCCAUGUGGUGA [Berion]”, the “apparent KD of MS2 coat protein” value with MS2 coat protein [1] stood at 240 nM; with MS2 coat protein [2], 216 nM.

“AAAAAGUGAGGAUAUACGCUGAAGAGUAGACACAACCAGGCGUAGAAGGCACAUGAGGAUCACCCAUGUACAAA [Ex4 Malc#9]”: the figures for the “apparent KD of MS2 coat protein” value with MS2 coat protein [1] and in the data set with MS2 coat protein [2] were 28.6 nM and 26.1 nM, respectively.

Consider “AGUCAUACAGGAUAUACAUGAGGAUCACCCAUGUAAAUCCUAAAAAGAAAAAAAUCAUGUAGAAGGGUAUGACA [EX3 224: Super Stable 24]”, for which the entries for the “apparent KD of MS2 coat protein” value in the data set on MS2 coat protein [1] and in the data set with MS2 coat protein [2] were 13 nM and 17.2 nM, respectively.

“AACAUGUCAGGAUAUUUAAGAAAAGAAAAGAAAGAAAAGAAAAAGAAGGGACAUGAGGAUCACCCAUGUAAGAA [EteRNA is fun!]”: the “apparent KD of MS2 coat protein” value in the data set on MS2 coat protein [1] stood at 117 nM; with MS2 coat protein [2], 56.8 nM.

As to “AAGGAGUGAGGAUAUCGGAAAGGACACGAAAGUGACAAAGACGAGAAGGCACAUGAGGAUCACCCAUGUAAAAA [milkweed 22]”, the figures for the “apparent KD of MS2 coat protein” value in the data set with MS2 coat protein [1] and in the data set with MS2 coat protein [2] were 38.7 nM and 34.6 nM, respectively.

With “AAGGGACAUGAGGAUCACCCAUGUGAGGAUAUGAUGCGAAUAAAGAAAGAAUAAAGCAUCAGAAGGCACACCAA [Mat - Exclusion 1 - Eli mod - D66]”, the “apparent KD of MS2 coat protein” value with MS2 coat protein [1] worked out at 77.2 nM; in the data set on MS2 coat protein [2] it was 109 nM.

Regarding “CUCAUGUUAGGAUAUUUAUGAAAUGAAGUGAAAGAAAAGAAAAAGAAGGAACAUGAGGAUCACCCAUGUUAGAA [EteRNA is fun!]”, the results for the “apparent KD of MS2 coat protein” value in the data set on MS2 coat protein [1] and in the data set on MS2 coat protein [2] were 65.2 nM and 35.4 nM, respectively.

With “AAACAACAUGAGGAUCACCCAUGUUAGGAUAUGAACGAAAAUAAAUAAAAAUAAAAGUUCAGAAGGGACAAAAA [66%, Wbt, 20]”, the “apparent KD of MS2 coat protein” value in the data set with MS2 coat protein [1] came out at 23 nM; with MS2 coat protein [2] it was 28.2 nM.

Take “AAAAAGUCAGGAUAUGCGAAGGCGUCUGAUAGACGAGGCUAGCAGAAGGGACAUGAGGAUCACCCAUGUGAAGA [Mat - Exclusion 4 - Eli mod - D84]”: the “apparent KD of MS2 coat protein” value is 49.8 nM in the data set with MS2 coat protein [1] and 97.5 nM in the data set with MS2 coat protein [2].

“AACUAGUGAGGAUAUACAAGAAAACAAACAAAAAUGAAGGGACAUGAGGAUCACCCAUGUAGAAGGCACUAACA [Diamond 70]”: the “apparent KD of MS2 coat protein” value came out at 48.2 nM in the data set with MS2 coat protein [1] and 100 nM in the data set with MS2 coat protein [2].

As to “AAAACGGUAGGAUAUACAAUUGAGAACUAGAUCGAAAAAAAACAUGAGGAUCACCCAUGUAGAAGGGCCAAAAA [Ex2 Malc#10]”, the results for the “apparent KD of MS2 coat protein” value in the data set with MS2 coat protein [1] and in the data set on MS2 coat protein [2] were 38.2 nM and 23.6 nM, respectively.

Consider “AAGAAUCAAGGAUAUACAAGGAAGAAAGAAAAGAAAAGAAAACAUGAGGAUCACCCAUGUAGAAGGUGAUAGAA [EteRNA is fun!]”, for which the “apparent KD of MS2 coat protein” value in the data set with MS2 coat protein [1] came to 327 nM; in the data set with MS2 coat protein [2], 846 nM.

As for “CUCUUGUGAGGAUAUCAAAGAAAAGAAGAGAAAGAAAAGAAUGAGAAGGCACAUGAGGAUCACCCAUGUAAGAA [EteRNA is fun!]”, the entries for the “apparent KD of MS2 coat protein” value in the data set with MS2 coat protein [1] and in the data set with MS2 coat protein [2] were 28.9 nM and 59.5 nM, respectively.

With “AACAGUACAGGAUAUACAUGAGGAUCACCCAUGUGAAGAUUAAGUGGUGUACCACAAAGUAGAAGGGUACUGGA [Ruby 90]”, the “apparent KD of MS2 coat protein” value in the data set on MS2 coat protein [1] was 54.9 nM; in the data set on MS2 coat protein [2], 77.9 nM.

“AAAAAACAUGAGGAUCACCCAUGUAAGGAUAUGCUGAAAAACACUGGAAAACAGUGCAGCAGAAGGUACAAAAA [66%, Wbt, 34]”: the “apparent KD of MS2 coat protein” value with MS2 coat protein [1] stood at 21.1 nM; in the data set on MS2 coat protein [2] it was 36.1 nM.

As to “AAAGGUACAGGAUAUGCGUGGAAAAAGUGUAUUCAAAAAAAACAUGAGGAUCACCCAUGUAGAAGGGUACCAAA [MS2 Riboswitches On Chip Exclusion 2 wbt1]”, the “apparent KD of MS2 coat protein” value with MS2 coat protein [1] is 69.7 nM; in the data set on MS2 coat protein [2], 253 nM.

For the sequence “AAGGGACAUGAGGAUCACCCAUGUCAGGAUAUGCUAUGGAAAAUAAAAAUAAAACAUAGCAGAAGGGACAAAAA [Denovo 4]”, the “apparent KD of MS2 coat protein” value with MS2 coat protein [1] came out at 38.5 nM; in the data set with MS2 coat protein [2] it was 53.1 nM.

As to “AAGAAACAUGAGGAUCACCCAUGUGAGGAUAUGGAAAAGAAAAGAAAAGAAAGAAGAAUCAGAAGGCACAAAGG [Meryhathor]”, the “apparent KD of MS2 coat protein” value was found to be 46.4 nM with MS2 coat protein [1] and 26.9 nM with MS2 coat protein [2].

For “AAAAUGUUAGGAUAUGUGAAGGCGUCUGAUAGACGAGGCCUGCAGAAGGGACAUGAGGAUCACCCAUGUAAAAA [Mod 1 of Nando's Round 1 Power Srip]”, the “apparent KD of MS2 coat protein” value in the data set on MS2 coat protein [1] is 53.9 nM; with MS2 coat protein [2], 24.7 nM.
